# Reference: the supplement of paper PMC9170038
# System: MS2 coat protein
# Test: apparent KD of MS2 coat protein; higher = weaker reporter binding
# Settings: Eterna round: R107; input ligand: theophylline 20 uM
# How it was run: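 Designed RNA switches were made by on-chip transcription from Illumina sequencing clusters and then titrated with SNAP-549-labelled MS2 coat protein. Twofold steps ran from 0.7 or 1.5 nM to 3 µM, each lasting 0.8–1.5 h early and 10–20 min late, in 100 mM Tris-HCl pH 7.5, 80 mM KCl, 4 mM MgCl2, without or with constant ligand. Apparent KD is the per-design median of normalised cluster binding-curve fits.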
row,Sequence,apparent KD of MS2 coat protein [µM]
1,GCUACAUGAGGAUCACCCAUGUAUGCGAGCCGAGGACCGGUACGGCCGCCACUCGCUUAACAUGAGGAUCACCCAUGUUUCUCGG [SSTA DOUBLE!!! :-D #16],0.193
2,CAGUGAGAGUCGGCCGCCACUUAACGCAAGUAGCGCAACCCAAAACAUGAGGAUCACCCAUGUCGAAGGACCGGGACAAUGAGCG [theeternabot_sameState_MS2_Trp_B_47],0.0167
3,CCGCCCACGAAUGAUACCAGCUAAAAUCAUGUACCAGACACAUGAGGAUCACCCAUGUAAAGCCCUUGGCAGCGUACGCCACCCG [e-theoB-?],0.0437
4,ACGAUAGCACACGAGGAUCACCCGUGUGAUACCAGCCUGGAAACAGGCCCUUGGCAGCACACAAUAAAAGUGUAACUAUCGAAUA [TheoAX4 #MicroSwitchBubble #AlternativeMS2],0.128
5,ACAUGAGGAUCACCCAUGUAUUACCGGGAAGGAGCGCGUGAAAACGCAGGUAGGUCGCUCGGCGUCGUGCUGUAAAGCACGACGA [#1 Same State - Arginine A Attempt #25 (HarryS)],0.0162
6,GCUGCUUUGGGAAGGAGCGCUGCGUUAUCAUGUUGGACAUGAGGAUCACCCAUGUAAAUGUAGCAGGUAGGUCGCUUAGGGCAGC [EAP NP+V+V2 #15],0.046
7,UGUAUGUGAUCUGAUACCAGCUUAAUAACAUGAGCAUCAGCCAUGUGGAGCGGAAACGCUAGCCCUUGGCAGCAGAUCGCAUACU [Denovo 11 #StaticStem #AlternativeMS2],0.079
8,ACGACGCAUAGUGAUACCAGCACAACAUGAGGAUCACCCAUGUCACUUAUGUAGUAAUAAUGCCCUUGGCAGCACUAUGCGUCAG [SSTheo B #1],0.0663
9,ACAUGAGGAUCACCCAUGUGAAGCAGGGUACGAGGACCGGUACGGCCGCCACUCGAGCAUUAUAACGAGUGAAUGGCAACGAUGU [whbob_Ex_trypto A_2s16],0.019
10,CAGUGAGAACGAAGGAGCGCUGAAUGAUGUGGACAUGAGGAUCACCCAUGUUAAGUCCAAUGGCAGGUAGGUCGCGUAACACUAG [Same State - Arginine B],0.0119
11,AAACUGAUCUUCAGGAGUCACUAUAUCUCCCGAGGACCGGUACGGCCGCCACUCGAACGUUUACAUGAGGAUCACCCAUGUGACU [theeternabot_exclusion_MS2_Trp_A_4],0.0164
12,CUCAUCCACGCGGCCGCCACUAUAUUGUGGUGUGAAUGUGUCGUAAUACAUGAGGAUCACCCAUGUAGGACCGGGCGUGGAUGAG [#08 Exclusion Tryptophan B],0.0309
13,UGUACCAUGUCGGCCGCCACUUGAAAUAAACAAGAGGAUCACCCUUGUGACGUCAAAGACGUCUCAAGGACCGGGACAUGGUACU [TryBS Zipper #StaticStem #Zipper],0.281
14,CGGGUUCGGGCGGCCGCCACUUUGAUUGGGUGUGACAUGAGGAUCACCCAUGUUGUGGGUGAUCGGAGGACCGGGUUUGGGCUUG [Fidorka],0.471
15,AUACAUGAGGAUCACCCAUGUUAUAGUGAAGGAGCGACGUUUAUGUCAGGUAGGUCGCACUGUUGUUUAAUGAUUCUUGGAUCUU [#21 Exclusion - Arginine A],0.0225
16,ACAUGAGGAUCACCCAUGUAUGAUGUUCCUCGAGGACCGGUACGGCCGCCACUCGAACGAGUGGCGCGCGAGUGCGCACUCGCGC [aWa],0.0387
17,AGGAACAUGAGGAUCACCCAUGUAAGCGAUACCAGUGAUAUGUUGCGCCCUUGGCAGCGCAAGUGUGUGUGAAAGAUGUAAGAUU [Eclusion - Theophylline A / A],0.0293
18,ACAUGAGGAUCACCCAUGUAAAUAACGGAAGGAGCGUGCGAAAGCACAGGUAGGUCGCCGAUAUAAAUAUUGGGUAUUAUAUUAU [#28 Exclusion - Arginine A],0.0471
19,ACGAACUGUAGUGAUACCAGACGUACAUGAGGAUCACCCAUGUUGUAAACAUGGUUAAUAGUCCCUUGGCAGCACAGUUAGUUCG [JR_ExcTheophyB_Sub002],0.612

# Same assay, conditions: Eterna round: R107; input ligand: theophylline 2 mM
row,Sequence,apparent KD of MS2 coat protein [µM]
1,AUUAAGGAUAUAUAGAAGGCGGAGAAGAGACGAGGACCGGUACGGCCGCCACUCGUGUUAGUUAACAUGAGGAUCACCCAUGUAA [Turkey 2],0.102
2,CUCUCAUGAACAUGAGGAUCACCCAUGUAACGAGGACCGGUACGGCCGCCACUCGAACGUGGAUACCAAUCGAGUGGGUGAGAGA [Tryp A Ex t5],0.0238
3,AAAAUAAAAUAAAAGGUGGAAAUAAGGCGGCGAGGACCGGUACGGCCGCCACUCGCGUACAUGAGGAUCACCCAUGUCUGAAAAU [Same State - Tryptophan A (Freestyle 1)],0.0266
4,UGACAUUGCUCAGAUACCAGACAUGAGCAUCAGCCAUGUGCCAACAAGUACAUAAUAAAUGUCCCUUGGCAGCUGAGCAAUGUCU [TheoBX 16 #MS2Left #Theo2 #AlternativeMS2],0.149
5,UAUGCACAUGAGGAUCACCCAUGUAUGGAAGGAGCGGUGAAUAAACCAGGUAGGUCGCCAUUGUGAGGGUCAUCUAUGUAAUCGU [Exclusion - Arginine A (Freestyle 4)],0.133
6,AGACAUGAGGAUCACCCAUGUAGUAUGGAUACCAGAUGUAGAUUAGUCCCUUGGCAGCUGUGCUGAAGUGAUGCAUUGCUCCUAG [#15 Exclusion-TheophyllineA],0.0242
7,ACGUGGAAAAUUUGUGGUGCUGCCUCAGGCCGAGGACCGGUACGGCCGCCACUCGUACAUGAGGAUCACCCAUGUCGAGUCACUG [Isanso],0.0474
8,UGUAUGGACUGAAGGAGCGGAUGAUAUCAUGAGGAUCACCCAUGGAAUAAGGCGAAAGCCAUCCAGGUAGGUCGCAGUCCAUACU,0.128
9,CAAUUUAGAAAACUAAAUUGAGUGGGUGAACGAGGACCGGUACGGCCGCCACUCGGACAUGAGGAUCACCCAUGUCCAUGUGAAA [AstrosExyTryA#23],0.0166
10,ACUAGUUGUGCAGAUACCAGGCACGAGGAUCACCCGUGUUUGGGAUGUUCGCAUCUUCCUGUCCCUUGGCAGCUGUACAUCUAGA [Omei Theo B Exc v9],0.155
11,GUAUCUAUGUGAAAUAGAUAUAUAACUGAAGGAGCGUCAUUAAGGACAGGUAGGUCGCAGAGCACCUGAGGAUCACCCAGGUAGG [Arg A SS s1],0.0316
12,UACUUGCUGACGGCCGCCACUAGAACAUGAGGAUCACCCAUGUAUGGCGGCCGAAUCCUCAUGACUAGGACCGGGUCAGCAAGAU [(Trp1)-(Ms2)-(T)'-(M)'-(Trp2)_Design2],0.00875
13,GCUACAUGAGGAUCACCCAUGUAUGCGAGCCGAGGACCGGUACGGCCGCCACUCGCUUAACAUGAGGAUCACCCAUGUUUCUCGG [SSTA DOUBLE!!! :-D #16],0.254
14,CAGUGAGAGUCGGCCGCCACUUAACGCAAGUAGCGCAACCCAAAACAUGAGGAUCACCCAUGUCGAAGGACCGGGACAAUGAGCG [theeternabot_sameState_MS2_Trp_B_47],0.0117
15,ACGAUAGCACACGAGGAUCACCCGUGUGAUACCAGCCUGGAAACAGGCCCUUGGCAGCACACAAUAAAAGUGUAACUAUCGAAUA [TheoAX4 #MicroSwitchBubble #AlternativeMS2],0.161
16,ACAUGAGGAUCACCCAUGUAUUACCGGGAAGGAGCGCGUGAAAACGCAGGUAGGUCGCUCGGCGUCGUGCUGUAAAGCACGACGA [#1 Same State - Arginine A Attempt #25 (HarryS)],0.0156
17,GCUGCUUUGGGAAGGAGCGCUGCGUUAUCAUGUUGGACAUGAGGAUCACCCAUGUAAAUGUAGCAGGUAGGUCGCUUAGGGCAGC [EAP NP+V+V2 #15],0.0297
18,UGUAUGUGAUCUGAUACCAGCUUAAUAACAUGAGCAUCAGCCAUGUGGAGCGGAAACGCUAGCCCUUGGCAGCAGAUCGCAUACU [Denovo 11 #StaticStem #AlternativeMS2],0.0132
19,ACAUGAGGAUCACCCAUGUGAAGCAGGGUACGAGGACCGGUACGGCCGCCACUCGAGCAUUAUAACGAGUGAAUGGCAACGAUGU [whbob_Ex_trypto A_2s16],0.0174
